Patent US20230242902A1, “A HIGHLY ERROR-PRONE […] R[…] FOR TARGETED CONTINUOUS EVOLUTION IN VIVO” (The Regents of the University of California, priority 2017, published 2023)

Tested on: p1
Assay: p1 copy number by p1-encoded mKate2 fluorescence
Assay type: cell-based, S. cerevisiae
Conditions: OR-Y24, measured in triplicate
Outline: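 Yeast OR-Y24 strains carrying TP-DNAP1 variants were grown to saturation from a 1:10,000 dilution, and p1-encoded mKate2 fluorescence was measured by flow cytometry (ex/em 561/620 nm). Values were converted to copy number via a linear calibration against qPCR of p1-encoded LEU2 versus genomic LEU3, or by plate-reader OD600-normalized fluorescence relative to w.t. TP-DNAP1.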

Molecule | Mean fold-increase over w.t. (p1 copy number) [fold]
I311D: TP-DNAP1 variant (protein) MDYKDKALNDLRNVYADFDSLPLDFRQILIKDRATLLQKEDVEKKILERQEDAKKYAEYLKQSEIPERISLPNIKRHKGVSISFEETSEDMVLEPRPFIFDGLNIRCFRRETIFSLKNKILNMVKESSSFKNVSRQSVSFMYFKIFNKGKVIASTKSVNIYEDKIDERLEDLCNNFDDVLKKIIDVTYGYESLFVSETYSYVIFYAKSIYFPQPRCVNNWGNNIPNILTFDSFKLFTANKNNVSCIKQCSRFLWQKDFNTLEEMIEYKNGNICIVTPQLHINDVRDIKSFNDIRLYSESPIKTFSVIDNTDTYLFYFKEHLGVIFNITKSRHDRRVTKFSPLSKFSDVKNITVCFDIESYFDPEKESNQVNIPFICCASIIYNKVIGNIVDFEGRDCVAQMIEYVVDICGELNISSVELIAHNGGGYDFHYILSSMYNPAAIKNILIRNNSFISFNFAHDGVKFSVKDSYSFLLCSLANASKAFLNEETFKKTDFPHHDLKTADDLYKVYKEWSSVNTEINHVVEKEKLLITSEHIVNFTKNDKSKTLIEWSKDYCRNDVLVLSKVWLEFKNAVEDIFNCELVDQTMTLAGLSYKLFQANMPFDVELRHPNKEDYFNMREALIGGRCISVNGIYKDVLCLDVKSLYPASMAFYDQPYGSFKRVSSRPKDELGIYYVRVTPNRNNKSNFFPIRSHNKITYNNFEESTYIAWYTNVDIDIGLSEGHNIEYIPFDSYGNIGYSWSKKGKIFEKYIKDVLYKLKIKYEKQNNKVKRNVIKIIMNSLWGKFAQKWVNFEYFIKSEDDIDFESEEAYKIWDTDFMLIKKIKESTYSSKPIQNGVFTLSWARYHMKSIWDAGAKEGAECIYSDTDSIFVHKEHFKKNAKFMLNGLKVPIIGSEVGQLELECEFDKLLCAGKKQYMGFYTYFQDGKPCIKEKKRFKGIPSNYIIPELYAHLLSGADKEAKIQFLKFRREWGSVKGYIENKTVKAT | 1.86
T312Q: TP-DNAP1 variant (protein) MDYKDKALNDLRNVYADFDSLPLDFRQILIKDRATLLQKEDVEKKILERQEDAKKYAEYLKQSEIPERISLPNIKRHKGVSISFEETSEDMVLEPRPFIFDGLNIRCFRRETIFSLKNKILNMVKESSSFKNVSRQSVSFMYFKIFNKGKVIASTKSVNIYEDKIDERLEDLCNNFDDVLKKIIDVTYGYESLFVSETYSYVIFYAKSIYFPQPRCVNNWGNNIPNILTFDSFKLFTANKNNVSCIKQCSRFLWQKDFNTLEEMIEYKNGNICIVTPQLHINDVRDIKSFNDIRLYSESPIKTFSVIDNTIQYLFYFKEHLGVIFNITKSRHDRRVTKFSPLSKFSDVKNITVCFDIESYFDPEKESNQVNIPFICCASIIYNKVIGNIVDFEGRDCVAQMIEYVVDICGELNISSVELIAHNGGGYDFHYILSSMYNPAAIKNILIRNNSFISFNFAHDGVKFSVKDSYSFLLCSLANASKAFLNEETFKKTDFPHHDLKTADDLYKVYKEWSSVNTEINHVVEKEKLLITSEHIVNFTKNDKSKTLIEWSKDYCRNDVLVLSKVWLEFKNAVEDIFNCELVDQTMTLAGLSYKLFQANMPFDVELRHPNKEDYFNMREALIGGRCISVNGIYKDVLCLDVKSLYPASMAFYDQPYGSFKRVSSRPKDELGIYYVRVTPNRNNKSNFFPIRSHNKITYNNFEESTYIAWYTNVDIDIGLSEGHNIEYIPFDSYGNIGYSWSKKGKIFEKYIKDVLYKLKIKYEKQNNKVKRNVIKIIMNSLWGKFAQKWVNFEYFIKSEDDIDFESEEAYKIWDTDFMLIKKIKESTYSSKPIQNGVFTLSWARYHMKSIWDAGAKEGAECIYSDTDSIFVHKEHFKKNAKFMLNGLKVPIIGSEVGQLELECEFDKLLCAGKKQYMGFYTYFQDGKPCIKEKKRFKGIPSNYIIPELYAHLLSGADKEAKIQFLKFRREWGSVKGYIENKTVKAT | 2.85
Y313H: TP-DNAP1 variant (protein) MDYKDKALNDLRNVYADFDSLPLDFRQILIKDRATLLQKEDVEKKILERQEDAKKYAEYLKQSEIPERISLPNIKRHKGVSISFEETSEDMVLEPRPFIFDGLNIRCFRRETIFSLKNKILNMVKESSSFKNVSRQSVSFMYFKIFNKGKVIASTKSVNIYEDKIDERLEDLCNNFDDVLKKIIDVTYGYESLFVSETYSYVIFYAKSIYFPQPRCVNNWGNNIPNILTFDSFKLFTANKNNVSCIKQCSRFLWQKDFNTLEEMIEYKNGNICIVTPQLHINDVRDIKSFNDIRLYSESPIKTFSVIDNTITHLFYFKEHLGVIFNITKSRHDRRVTKFSPLSKFSDVKNITVCFDIESYFDPEKESNQVNIPFICCASIIYNKVIGNIVDFEGRDCVAQMIEYVVDICGELNISSVELIAHNGGGYDFHYILSSMYNPAAIKNILIRNNSFISFNFAHDGVKFSVKDSYSFLLCSLANASKAFLNEETFKKTDFPHHDLKTADDLYKVYKEWSSVNTEINHVVEKEKLLITSEHIVNFTKNDKSKTLIEWSKDYCRNDVLVLSKVWLEFKNAVEDIFNCELVDQTMTLAGLSYKLFQANMPFDVELRHPNKEDYFNMREALIGGRCISVNGIYKDVLCLDVKSLYPASMAFYDQPYGSFKRVSSRPKDELGIYYVRVTPNRNNKSNFFPIRSHNKITYNNFEESTYIAWYTNVDIDIGLSEGHNIEYIPFDSYGNIGYSWSKKGKIFEKYIKDVLYKLKIKYEKQNNKVKRNVIKIIMNSLWGKFAQKWVNFEYFIKSEDDIDFESEEAYKIWDTDFMLIKKIKESTYSSKPIQNGVFTLSWARYHMKSIWDAGAKEGAECIYSDTDSIFVHKEHFKKNAKFMLNGLKVPIIGSEVGQLELECEFDKLLCAGKKQYMGFYTYFQDGKPCIKEKKRFKGIPSNYIIPELYAHLLSGADKEAKIQFLKFRREWGSVKGYIENKTVKAT | 3.08
I311M: TP-DNAP1 variant (protein) MDYKDKALNDLRNVYADFDSLPLDFRQILIKDRATLLQKEDVEKKILERQEDAKKYAEYLKQSEIPERISLPNIKRHKGVSISFEETSEDMVLEPRPFIFDGLNIRCFRRETIFSLKNKILNMVKESSSFKNVSRQSVSFMYFKIFNKGKVIASTKSVNIYEDKIDERLEDLCNNFDDVLKKIIDVTYGYESLFVSETYSYVIFYAKSIYFPQPRCVNNWGNNIPNILTFDSFKLFTANKNNVSCIKQCSRFLWQKDFNTLEEMIEYKNGNICIVTPQLHINDVRDIKSFNDIRLYSESPIKTFSVIDNTMTYLFYFKEHLGVIFNITKSRHDRRVTKFSPLSKFSDVKNITVCFDIESYFDPEKESNQVNIPFICCASIIYNKVIGNIVDFEGRDCVAQMIEYVVDICGELNISSVELIAHNGGGYDFHYILSSMYNPAAIKNILIRNNSFISFNFAHDGVKFSVKDSYSFLLCSLANASKAFLNEETFKKTDFPHHDLKTADDLYKVYKEWSSVNTEINHVVEKEKLLITSEHIVNFTKNDKSKTLIEWSKDYCRNDVLVLSKVWLEFKNAVEDIFNCELVDQTMTLAGLSYKLFQANMPFDVELRHPNKEDYFNMREALIGGRCISVNGIYKDVLCLDVKSLYPASMAFYDQPYGSFKRVSSRPKDELGIYYVRVTPNRNNKSNFFPIRSHNKITYNNFEESTYIAWYTNVDIDIGLSEGHNIEYIPFDSYGNIGYSWSKKGKIFEKYIKDVLYKLKIKYEKQNNKVKRNVIKIIMNSLWGKFAQKWVNFEYFIKSEDDIDFESEEAYKIWDTDFMLIKKIKESTYSSKPIQNGVFTLSWARYHMKSIWDAGAKEGAECIYSDTDSIFVHKEHFKKNAKFMLNGLKVPIIGSEVGQLELECEFDKLLCAGKKQYMGFYTYFQDGKPCIKEKKRFKGIPSNYIIPELYAHLLSGADKEAKIQFLKFRREWGSVKGYIENKTVKAT | 2.26
I311G: TP-DNAP1 variant (protein) MDYKDKALNDLRNVYADFDSLPLDFRQILIKDRATLLQKEDVEKKILERQEDAKKYAEYLKQSEIPERISLPNIKRHKGVSISFEETSEDMVLEPRPFIFDGLNIRCFRRETIFSLKNKILNMVKESSSFKNVSRQSVSFMYFKIFNKGKVIASTKSVNIYEDKIDERLEDLCNNFDDVLKKIIDVTYGYESLFVSETYSYVIFYAKSIYFPQPRCVNNWGNNIPNILTFDSFKLFTANKNNVSCIKQCSRFLWQKDFNTLEEMIEYKNGNICIVTPQLHINDVRDIKSFNDIRLYSESPIKTFSVIDNTGTYLFYFKEHLGVIFNITKSRHDRRVTKFSPLSKFSDVKNITVCFDIESYFDPEKESNQVNIPFICCASIIYNKVIGNIVDFEGRDCVAQMIEYVVDICGELNISSVELIAHNGGGYDFHYILSSMYNPAAIKNILIRNNSFISFNFAHDGVKFSVKDSYSFLLCSLANASKAFLNEETFKKTDFPHHDLKTADDLYKVYKEWSSVNTEINHVVEKEKLLITSEHIVNFTKNDKSKTLIEWSKDYCRNDVLVLSKVWLEFKNAVEDIFNCELVDQTMTLAGLSYKLFQANMPFDVELRHPNKEDYFNMREALIGGRCISVNGIYKDVLCLDVKSLYPASMAFYDQPYGSFKRVSSRPKDELGIYYVRVTPNRNNKSNFFPIRSHNKITYNNFEESTYIAWYTNVDIDIGLSEGHNIEYIPFDSYGNIGYSWSKKGKIFEKYIKDVLYKLKIKYEKQNNKVKRNVIKIIMNSLWGKFAQKWVNFEYFIKSEDDIDFESEEAYKIWDTDFMLIKKIKESTYSSKPIQNGVFTLSWARYHMKSIWDAGAKEGAECIYSDTDSIFVHKEHFKKNAKFMLNGLKVPIIGSEVGQLELECEFDKLLCAGKKQYMGFYTYFQDGKPCIKEKKRFKGIPSNYIIPELYAHLLSGADKEAKIQFLKFRREWGSVKGYIENKTVKAT | 2.05
T312E: TP-DNAP1 variant (protein) MDYKDKALNDLRNVYADFDSLPLDFRQILIKDRATLLQKEDVEKKILERQEDAKKYAEYLKQSEIPERISLPNIKRHKGVSISFEETSEDMVLEPRPFIFDGLNIRCFRRETIFSLKNKILNMVKESSSFKNVSRQSVSFMYFKIFNKGKVIASTKSVNIYEDKIDERLEDLCNNFDDVLKKIIDVTYGYESLFVSETYSYVIFYAKSIYFPQPRCVNNWGNNIPNILTFDSFKLFTANKNNVSCIKQCSRFLWQKDFNTLEEMIEYKNGNICIVTPQLHINDVRDIKSFNDIRLYSESPIKTFSVIDNTIEYLFYFKEHLGVIFNITKSRHDRRVTKFSPLSKFSDVKNITVCFDIESYFDPEKESNQVNIPFICCASIIYNKVIGNIVDFEGRDCVAQMIEYVVDICGELNISSVELIAHNGGGYDFHYILSSMYNPAAIKNILIRNNSFISFNFAHDGVKFSVKDSYSFLLCSLANASKAFLNEETFKKTDFPHHDLKTADDLYKVYKEWSSVNTEINHVVEKEKLLITSEHIVNFTKNDKSKTLIEWSKDYCRNDVLVLSKVWLEFKNAVEDIFNCELVDQTMTLAGLSYKLFQANMPFDVELRHPNKEDYFNMREALIGGRCISVNGIYKDVLCLDVKSLYPASMAFYDQPYGSFKRVSSRPKDELGIYYVRVTPNRNNKSNFFPIRSHNKITYNNFEESTYIAWYTNVDIDIGLSEGHNIEYIPFDSYGNIGYSWSKKGKIFEKYIKDVLYKLKIKYEKQNNKVKRNVIKIIMNSLWGKFAQKWVNFEYFIKSEDDIDFESEEAYKIWDTDFMLIKKIKESTYSSKPIQNGVFTLSWARYHMKSIWDAGAKEGAECIYSDTDSIFVHKEHFKKNAKFMLNGLKVPIIGSEVGQLELECEFDKLLCAGKKQYMGFYTYFQDGKPCIKEKKRFKGIPSNYIIPELYAHLLSGADKEAKIQFLKFRREWGSVKGYIENKTVKAT | 2.29
